The target in experiment [1] is T1, Aβ1-42 monomers versus Aβ1-42 oligomers and fibrils (biotinylated, D-enantiomeric, immobilized) (Homo sapiens, UniProt P05067).
T1 construct: biotinylated, D-enantiomeric Aβ1-42 monomers
In words: Monoclonal phage ELISA. The experiment is classed as binding. The note with it: individual phage clones; species immobilized at 320 nM; absorption at 450 nm normalized with 6E10 control; higher = more monomer-specific. From the text: The specificity of the peptide results from the difference in % of the absorption values for the target molecule or the bait (for example A beta monomer) and the normalized absorption values for the competitors (for example A beta oligomers and fibrils) in the monoclonal phage ELISA.
The absorption values then constitute the affinity of individual phage clones for a particular immobilized A beta species. Here, the specificity is not dependent on the strength of the affinity, but instead only on the difference of the affinities between the species. […] The terms “competitors” and “target molecule” or “bait” are defined as specified below.
A method for normalizing the obtained values should therefore be performed. From all absorption values of the individual phage clone in the monoclonal phage ELISA, the values of the phage antibodies tested for cross-reaction can be used as background. This occurs in accordance with the previously immobilized species. The signal values of the phage antibody from the reaction trays with immobilized Aβ1-42 oligomers for this purpose can be removed from the signal values of the individual phage clone from the reaction trays with immobilized Aβ1-42 oligomers. A similar process is then carried out for Aβ1-42 monomers. In this way, a possible background signal of the phage antibody can initially be calculated from the signals of the individual phage clone. […] Only in this way is an equal interpretation of the results particularly in respect of the assessment of the specificity of the individual phage clone possible (see FIG. 2).
The affinity of individual phage clones with respect to the target molecule and the competitors was examined by means of ELISA. For this purpose, all three species were immobilized in biotinylated form on a polystyrene surface at streptavidin bound thereon. Since, during the panning rounds, oligomers and fibrils were added at the same time as competitors, these two species were immobilized in the monoclonal phage ELISA, likewise mixed. […] The streptavidin-coated microtiter plates were pre-washed as specified by the manufacturer. […] For immobilization, 100 μl were used per reaction tray and were incubated for 15 minutes at room temperature. After having washed the entire plate(s) twice with 150 μl 1×TBS per reaction tray, a blocking step with 150 μl 1×TBS/0.1% (v/v) Tween-20/1% (w/v) BSA was performed for an hour at room temperature. Three washing steps with 150 μl 1×TBS/0.1% (v/v) Tween-20 then followed per reaction tray. The amplified individual phage clones were mixed 1:1 with 1× TBS/1% (w/v) BSA. The antibody 6E10 was diluted 1:10,000 in 1×TBS/0.1% (v/v) Tween-20. […] After washing five times with 150 μl 1×TBS/0.1% (v/v) Tween-20 per reaction tray, 200 μl 1×TBS/0.1% (v/v) Tween-20 were placed in each reaction tray, and the plate(s) incubated for one hour at room temperature. The solutions were removed and replaced as follows: In all reaction trays that had been incubated previously with individual phage clone dilutions or the batch without phages, 100 μl of a phage antibody diluted 1:5,000 in 1×TBS/0.1% (v/v) Tween-20 were now added. The enzyme horseradish peroxidase (HRP) was coupled to this antibody and later served for the conversion of a substrate (TMB). […] At the same time, 100 μl of a second antibody diluted 1:1,000 in 1×TBS/0.1% (v/v) Tween-20 were now added to all reaction trays that had been previously incubated with the dilution of the 6E10 antibody, said second antibody being able to identify and bind to the 6E10 antibody originating from mice. This antibody is also HRP-coupled and thus allows a quantification of the binding of the first antibody to the immobilized target molecules or the plastics surface of the reaction tray. After one hour of incubation at room temperature, the plate(s) was/were washed 10 times with 150 μl 1×TBS/0.1% (v/v) Tween-20 per reaction tray. The signal was detected by adding the substrate 3,3′,5,5′-tetramethylbenzidine (TMB). […]

In another experiment the target is Aβ1-42 (Homo sapiens, UniProt P05067). The experiment in a line: ThT test, modulation of Aβ1-42 aggregation. The format is biochemical. The conditions noted are these: 10 μM Aβ1-42, equimolar peptide, versus Aβ1-42 alone = 100%. From the text: FIG. 3: The average relative fluorescence from seven independently performed ThT experiments with standard deviation is shown. The dye Thioflavin T (ThT) binds to β-pleated sheet structures in the batch and thereupon changes its fluorescence spectrum. […] The time in which the logarithmic rise of the fluorescence signal transitioned into a stationary phase was set to 100%.

Square brackets hold non-standard residues; d marks the D form.

T1 sequence (P05067 672-713): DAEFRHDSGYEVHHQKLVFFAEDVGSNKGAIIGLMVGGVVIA
Sequence of Aβ1-42 (P05067 672-713 limits assumed): as the sequence (P05067 672-713) above

For the sequence “HNWFYWTTEPYD (H-[dH][dN][dW][dF][dY][dW][dT][dT][dE][dP][dY][dD]-NH2; SMILES C[C@H](O)[C@@H](NC(=O)[C@@H](Cc1c[nH]c2ccccc12)NC(=O)[C@@H](Cc1ccc(O)cc1)NC(=O)[C@@H](Cc1ccccc1)NC(=O)[C@@H](Cc1c[nH]c2ccccc12)NC(=O)[C@@H](CC(N)=O)NC(=O)[C@H](N)Cc1c[nH]cn1)C(=O)N[C@@H](C(=O)N[C@H](CCC(=O)O)C(=O)N1CCC[C@@H]1C(=O)N[C@H](Cc1ccc(O)cc1)C(=O)N[C@H](CC(=O)O)C(N)=O)[C@H](C)O) [Mosd4]”, the “Difference in signal strength between Aβ1-42 monomers (100%) and Aβ1-42 oligomers and fibrils” value in experiment [1] came to 69.154%. Moreover, in the experiment with Aβ1-42, the “relative ThT fluorescence (formation of β-pleated sheet structures)” value is recorded as “only a very small influence”.
As to “STLHFYTAFLNK (H-[dS][dT][dL][dH][dF][dY][dT][dA][dF][dL][dN][dK]-NH2; SMILES CC(C)C[C@@H](NC(=O)[C@@H](Cc1ccccc1)NC(=O)[C@@H](C)NC(=O)[C@H](NC(=O)[C@@H](Cc1ccc(O)cc1)NC(=O)[C@@H](Cc1ccccc1)NC(=O)[C@@H](Cc1c[nH]cn1)NC(=O)[C@@H](CC(C)C)NC(=O)[C@H](NC(=O)[C@H](N)CO)[C@H](C)O)[C@H](C)O)C(=O)N[C@H](CC(N)=O)C(=O)N[C@H](CCCCN)C(N)=O) [Mosd6]”, the “Difference in signal strength between Aβ1-42 monomers (100%) and Aβ1-42 oligomers and fibrils” value in experiment [1] is given as 67.981%.
Still for that read-out and setting: to “HNWSWEWWYNPN (H-[dH][dN][dW][dS][dW][dE][dW][dW][dY][dN][dP][dN]-NH2; SMILES NC(=O)C[C@@H](NC(=O)[C@H]1CCCN1C(=O)[C@@H](CC(N)=O)NC(=O)[C@@H](Cc1ccc(O)cc1)NC(=O)[C@@H](Cc1c[nH]c2ccccc12)NC(=O)[C@@H](Cc1c[nH]c2ccccc12)NC(=O)[C@@H](CCC(=O)O)NC(=O)[C@@H](Cc1c[nH]c2ccccc12)NC(=O)[C@@H](CO)NC(=O)[C@@H](Cc1c[nH]c2ccccc12)NC(=O)[C@@H](CC(N)=O)NC(=O)[C@H](N)Cc1c[nH]cn1)C(N)=O) [Mosd5]” belongs 62.729%; to “DRSKGDHRITQM (H-[dD][dR][dS][dK]G[dD][dH][dR][dI][dT][dQ][dM]-NH2; SMILES CC[C@@H](C)[C@@H](NC(=O)[C@@H](CCCNC(=N)N)NC(=O)[C@@H](Cc1c[nH]cn1)NC(=O)[C@@H](CC(=O)O)NC(=O)CNC(=O)[C@@H](CCCCN)NC(=O)[C@@H](CO)NC(=O)[C@@H](CCCNC(=N)N)NC(=O)[C@H](N)CC(=O)O)C(=O)N[C@@H](C(=O)N[C@H](CCC(N)=O)C(=O)N[C@H](CCSC)C(N)=O)[C@H](C)O) [Mosd18]”, 49.181%.
Consider “DWSSRVYRDPQT (H-[dD][dW][dS][dS][dR][dV][dY][dR][dD][dP][dQ][dT]-NH2; SMILES CC(C)[C@@H](NC(=O)[C@@H](CCCNC(=N)N)NC(=O)[C@@H](CO)NC(=O)[C@@H](CO)NC(=O)[C@@H](Cc1c[nH]c2ccccc12)NC(=O)[C@H](N)CC(=O)O)C(=O)N[C@H](Cc1ccc(O)cc1)C(=O)N[C@H](CCCNC(=N)N)C(=O)N[C@H](CC(=O)O)C(=O)N1CCC[C@@H]1C(=O)N[C@H](CCC(N)=O)C(=O)N[C@@H](C(N)=O)[C@H](C)O) [Mosd16]”, for which the “Difference in signal strength between Aβ1-42 monomers (100%) and Aβ1-42 oligomers and fibrils” value in experiment [1] is reported as 52.387%.
Still for that read-out and setting: to “ERSQWGHRDPQS (H-[dE][dR][dS][dQ][dW]G[dH][dR][dD][dP][dQ][dS]-NH2; SMILES N=C(N)NCCC[C@@H](NC(=O)[C@H](N)CCC(=O)O)C(=O)N[C@H](CO)C(=O)N[C@H](CCC(N)=O)C(=O)N[C@H](Cc1c[nH]c2ccccc12)C(=O)NCC(=O)N[C@H](Cc1c[nH]cn1)C(=O)N[C@H](CCCNC(=N)N)C(=O)N[C@H](CC(=O)O)C(=O)N1CCC[C@@H]1C(=O)N[C@H](CCC(N)=O)C(=O)N[C@H](CO)C(N)=O) [Mosd17]” belongs 54.492%.
